Drawing on PMC6555819, “Comprehensive study of nuclear receptor DNA binding provides a revised framework for understanding receptor specificity”, this text covers binding signal for 30 molecules.

B1: NRC3_wobSeed89_DR3_C26G_o1 (dsDNA)
DNA 1: GCCTATGTAGGTTAAGGGGGTCATTGAGTTTGAAAGGCGATTGACAGCGTAGAATGAAGG
DNA 2: CCTTCATTCTACGCTGTCAATCGCCTTTCAAACTCAATGACCCCCTTAACCTACATAGGC
B2: NRC3_random_hg19_17_o1 (dsDNA)
DNA 1: GCCTGCAGTTTCACTTTGCATGTCTTCTTTCCTCAAGCGATTGACAGCGTAGAATGAAGG
DNA 2: CCTTCATTCTACGCTGTCAATCGCTTGAGGAAAGAAGACATGCAAAGTGAAACTGCAGGC
B3: NRC3_wobSeed100_DR4_A24T_o1 (dsDNA)
DNA 1: GCCCTACTGGGCCACGAAAGGTCTTTGATTCAGTGAGCGATTGACAGCGTAGAATGAAGG
DNA 2: CCTTCATTCTACGCTGTCAATCGCTCACTGAATCAAAGACCTTTCGTGGCCCAGTAGGGC
B4: NRC3_wobSeed130_DR5_G14T_o1 (dsDNA)
DNA 1: GCCTCGAAAGGTCTTGCTCAGGTGAGTATACCAAACGCGATTGACAGCGTAGAATGAAGG
DNA 2: CCTTCATTCTACGCTGTCAATCGCGTTTGGTATACTCACCTGAGCAAGACCTTTCGAGGC
B5: NRC3_random_hg19_161_o1 (dsDNA)
DNA 1: GCTCTGTGGCCTCGGCTCTCCAGGACTCGGAGGCTCGCGATTGACAGCGTAGAATGAAGG
DNA 2: CCTTCATTCTACGCTGTCAATCGCGAGCCTCCGAGTCCTGGAGAGCCGAGGCCACAGAGC
B6: NRC3_random_hg19_3_o1 (dsDNA)
DNA 1: GCGCCAGAGGTGGAATGATATGATATGTCTCTGTGTGCGATTGACAGCGTAGAATGAAGG
DNA 2: CCTTCATTCTACGCTGTCAATCGCACACAGAGACATATCATATCATTCCACCTCTGGCGC
B7: NRC3_random_hg19_409_o1 (dsDNA)
DNA 1: GCGACTGCACTCCAGCCTGGGTGACACAACAAGACTGCGATTGACAGCGTAGAATGAAGG
DNA 2: CCTTCATTCTACGCTGTCAATCGCAGTCTTGTTGTGTCACCCAGGCTGGAGTGCAGTCGC
B8: NRC3_wobSeed93_DR3_T12A_o1 (dsDNA)
DNA 1: GCAGTCAAAGTACATCTAGGTAACGTAAGATATGCTGCGATTGACAGCGTAGAATGAAGG
DNA 2: CCTTCATTCTACGCTGTCAATCGCAGCATATCTTACGTTACCTAGATGTACTTTGACTGC
B9: NRC3_wobSeed58_DR2_C13G_o1 (dsDNA)
DNA 1: GCATCGAAAGGTGGTGAGGTGAGTATACAGAAAGGCGCGATTGACAGCGTAGAATGAAGG
DNA 2: CCTTCATTCTACGCTGTCAATCGCGCCTTTCTGTATACTCACCTCACCACCTTTCGATGC
B10: NRC3_wobSeed98_DR4_G20T_o1 (dsDNA)
DNA 1: GCACTAGTTGGTCAGCTGATGTCACACACAATTCGGGCGATTGACAGCGTAGAATGAAGG
DNA 2: CCTTCATTCTACGCTGTCAATCGCCCGAATTGTGTGTGACATCAGCTGACCAACTAGTGC
B11: NRC3_random_hg19_461_o1 (dsDNA)
DNA 1: GCGCCTGACTCCAGCCCACAGGCTGGGAGTGGAAGTGCGATTGACAGCGTAGAATGAAGG
DNA 2: CCTTCATTCTACGCTGTCAATCGCACTTCCACTCCCAGCCTGTGGGCTGGAGTCAGGCGC
B12: NRC3_random_hg19_370_o1 (dsDNA)
DNA 1: GCTTTCTTTCTCTCTTGTCTGATTGCTCTGGCTAGAGCGATTGACAGCGTAGAATGAAGG
DNA 2: CCTTCATTCTACGCTGTCAATCGCTCTAGCCAGAGCAATCAGACAAGAGAGAAAGAAAGC
B13: NRC3_random_hg19_125_o1 (dsDNA)
DNA 1: GCCAACCTACCAAACCATAACCAGTGTGTTTGCTCCGCGATTGACAGCGTAGAATGAAGG
DNA 2: CCTTCATTCTACGCTGTCAATCGCGGAGCAAACACACTGGTTATGGTTTGGTAGGTTGGC
B14: NRC3_random_hg19_337_o1 (dsDNA)
DNA 1: GCGTATTGAGCATCTATGATCTGCCAGTTAGGCTGCGCGATTGACAGCGTAGAATGAAGG
DNA 2: CCTTCATTCTACGCTGTCAATCGCGCAGCCTAACTGGCAGATCATAGATGCTCAATACGC
B15: NRC3_random_hg19_154_o1 (dsDNA)
DNA 1: GCAAGCATAGCTTTGAGAGCAGTAAAGTGGTTCATTGCGATTGACAGCGTAGAATGAAGG
DNA 2: CCTTCATTCTACGCTGTCAATCGCAATGAACCACTTTACTGCTCTCAAAGCTATGCTTGC
B16: NRC3_random_hg19_274_o1 (dsDNA)
DNA 1: GCTTCGTGCCCTTCCCTTGGACAGACTCCCTTGGCAGCGATTGACAGCGTAGAATGAAGG
DNA 2: CCTTCATTCTACGCTGTCAATCGCTGCCAAGGGAGTCTGTCCAAGGGAAGGGCACGAAGC
B17: NRC3_wobSeed74_DR3_G20C_o1 (dsDNA)
DNA 1: GCTCTAGTTGGTCACGGAGCTCACACACGACGGGTAGCGATTGACAGCGTAGAATGAAGG
DNA 2: CCTTCATTCTACGCTGTCAATCGCTACCCGTCGTGTGTGAGCTCCGTGACCAACTAGAGC
B18: NRC3_random_hg19_30_o1 (dsDNA)
DNA 1: GCTGGAATGCAGTGGCACGATCACACATCACTGCAAGCGATTGACAGCGTAGAATGAAGG
DNA 2: CCTTCATTCTACGCTGTCAATCGCTTGCAGTGATGTGTGATCGTGCCACTGCATTCCAGC
B19: NRC3_random_hg19_247_o1 (dsDNA)
DNA 1: GCGCATGCCACAGGACTGGTAGGCAGCTCCATCTGCGCGATTGACAGCGTAGAATGAAGG
DNA 2: CCTTCATTCTACGCTGTCAATCGCGCAGATGGAGCTGCCTACCAGTCCTGTGGCATGCGC
B20: NRC3_random_hg19_251_o1 (dsDNA)
DNA 1: GCCTGTGGAATCCAACATGCCAAATGCTTGCTTGAGGCGATTGACAGCGTAGAATGAAGG
DNA 2: CCTTCATTCTACGCTGTCAATCGCCTCAAGCAAGCATTTGGCATGTTGGATTCCACAGGC
B21: NRC3_wobSeed142_DR5_G21T_o1 (dsDNA)
DNA 1: GCATACCAAGGTGATCGTGATGTCGTTGATACTAACGCGATTGACAGCGTAGAATGAAGG
DNA 2: CCTTCATTCTACGCTGTCAATCGCGTTAGTATCAACGACATCACGATCACCTTGGTATGC
B22: NRC3_random_hg19_335_o1 (dsDNA)
DNA 1: GCATCTATGTGCATATGGAAGAAAGGAATGCAAGATGCGATTGACAGCGTAGAATGAAGG
DNA 2: CCTTCATTCTACGCTGTCAATCGCATCTTGCATTCCTTTCTTCCATATGCACATAGATGC
B23: NRC3_wobSeed18_DR0_C13A_o1 (dsDNA)
DNA 1: GCGATACAGGGTAAAGGCCAGAGTACGCGTATTGATGCGATTGACAGCGTAGAATGAAGG
DNA 2: CCTTCATTCTACGCTGTCAATCGCATCAATACGCGTACTCTGGCCTTTACCCTGTATCGC
B24: NRC3_wobSeed125_DR5_G10C_o1 (dsDNA)
DNA 1: GCCCTTACGCGTCACTGACAGGTTATAGCATTTGGAGCGATTGACAGCGTAGAATGAAGG
DNA 2: CCTTCATTCTACGCTGTCAATCGCTCCAAATGCTATAACCTGTCAGTGACGCGTAAGGGC
B25: NRC3_wobSeed125_DR5_G11C_o1 (dsDNA)
DNA 1: GCCCTTACGGCTCACTGACAGGTTATAGCATTTGGAGCGATTGACAGCGTAGAATGAAGG
DNA 2: CCTTCATTCTACGCTGTCAATCGCTCCAAATGCTATAACCTGTCAGTGAGCCGTAAGGGC
B26: NRC3_wobSeed81_DR3_C22A_o1 (dsDNA)
DNA 1: GCATCTCTAGGTAACCAAGTTAAGTGAATGCCGAACGCGATTGACAGCGTAGAATGAAGG
DNA 2: CCTTCATTCTACGCTGTCAATCGCGTTCGGCATTCACTTAACTTGGTTACCTAGAGATGC
B27: NRC3_wobSeed17_DR0_T18C_o1 (dsDNA)
DNA 1: GCATATGTAGGTTAGGGCCATTCAGAAAGTAGGGAAGCGATTGACAGCGTAGAATGAAGG
DNA 2: CCTTCATTCTACGCTGTCAATCGCTTCCCTACTTTCTGAATGGCCCTAACCTACATATGC
B28: NRC3_wobSeed17_DR0_T18A_o1 (dsDNA)
DNA 1: GCATATGTAGGTTAGGGACATTCAGAAAGTAGGGAAGCGATTGACAGCGTAGAATGAAGG
DNA 2: CCTTCATTCTACGCTGTCAATCGCTTCCCTACTTTCTGAATGTCCCTAACCTACATATGC
B29: NRC3_wobSeed114_DR4_G11A_o1 (dsDNA)
DNA 1: GCAATACAGGATCATCGTAGGCCAGAGTACGCACAGGCGATTGACAGCGTAGAATGAAGG
DNA 2: CCTTCATTCTACGCTGTCAATCGCCTGTGCGTACTCTGGCCTACGATGATCCTGTATTGC
B30: NRC3_random_hg19_191_o1 (dsDNA)
DNA 1: GCAGGAGAGACAGAGGAAGAGATGTGACATCAGAAGGCGATTGACAGCGTAGAATGAAGG
DNA 2: CCTTCATTCTACGCTGTCAATCGCCTTCTGATGTCACATCTCTTCCTCTGTCTCTCCTGC

Chain of VDR:RXRa (P11473 whole entry, chain 1 of 2): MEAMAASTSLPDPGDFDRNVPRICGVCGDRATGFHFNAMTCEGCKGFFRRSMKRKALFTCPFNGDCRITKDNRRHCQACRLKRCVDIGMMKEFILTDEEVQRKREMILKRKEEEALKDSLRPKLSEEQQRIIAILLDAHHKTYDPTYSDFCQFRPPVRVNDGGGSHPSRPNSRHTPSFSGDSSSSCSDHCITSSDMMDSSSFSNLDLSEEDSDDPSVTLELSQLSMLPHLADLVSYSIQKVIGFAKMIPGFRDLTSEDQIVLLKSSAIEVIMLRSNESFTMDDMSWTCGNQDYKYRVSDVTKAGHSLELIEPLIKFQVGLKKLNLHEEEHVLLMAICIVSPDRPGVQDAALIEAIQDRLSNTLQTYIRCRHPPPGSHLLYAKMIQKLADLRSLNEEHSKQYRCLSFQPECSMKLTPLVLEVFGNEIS
Chain of VDR:RXRa (P19793 whole entry, chain 2 of 2): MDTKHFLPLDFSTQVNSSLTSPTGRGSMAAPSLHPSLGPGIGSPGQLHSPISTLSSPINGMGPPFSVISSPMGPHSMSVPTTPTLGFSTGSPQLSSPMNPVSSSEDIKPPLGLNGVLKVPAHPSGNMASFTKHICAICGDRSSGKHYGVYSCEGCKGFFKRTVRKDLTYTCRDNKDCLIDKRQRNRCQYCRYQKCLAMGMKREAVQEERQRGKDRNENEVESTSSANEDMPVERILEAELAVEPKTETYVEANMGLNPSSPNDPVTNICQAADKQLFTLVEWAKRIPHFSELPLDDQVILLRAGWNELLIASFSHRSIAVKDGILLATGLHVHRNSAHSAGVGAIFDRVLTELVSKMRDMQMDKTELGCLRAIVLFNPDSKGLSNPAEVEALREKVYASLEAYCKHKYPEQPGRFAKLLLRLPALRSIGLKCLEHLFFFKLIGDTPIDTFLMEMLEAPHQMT
Chain of PPARa:RXRa (Q07869 whole entry, chain 1 of 2): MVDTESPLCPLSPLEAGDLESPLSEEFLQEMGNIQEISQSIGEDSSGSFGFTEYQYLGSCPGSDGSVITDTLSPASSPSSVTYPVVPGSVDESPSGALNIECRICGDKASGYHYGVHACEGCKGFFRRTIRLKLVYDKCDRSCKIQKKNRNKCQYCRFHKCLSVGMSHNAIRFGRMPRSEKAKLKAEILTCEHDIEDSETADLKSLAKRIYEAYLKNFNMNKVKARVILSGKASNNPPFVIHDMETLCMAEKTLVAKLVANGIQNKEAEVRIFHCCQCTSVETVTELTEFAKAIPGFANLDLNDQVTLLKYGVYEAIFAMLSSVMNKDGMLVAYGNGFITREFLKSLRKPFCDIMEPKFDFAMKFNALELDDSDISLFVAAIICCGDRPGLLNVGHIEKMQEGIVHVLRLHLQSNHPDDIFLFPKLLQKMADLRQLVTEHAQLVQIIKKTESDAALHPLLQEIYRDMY
Chain of PPARa:RXRa (P19793 whole entry, chain 2 of 2): as the sequence (P19793 whole entry, chain 2 of 2) above

The target in one data set is PPARa:RXRa (Homo sapiens, UniProt Q07869;P19793 full;full). In words: no ligand; PBM; 270 nM : 90 nM RXRa; PBS pH 7.4, 2% milk, 0.02% Triton X-100, 1 mM DTT, BSA, 0.4 mg/ml salmon testes DNA. The note with it: tags: GST kept;His cleaved; copies: 1;1; label: surface-attached array probe. The gist of the method:
(§1)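 Binding z-scores were set against random background probes. The data came from custom Agilent 4×180K protein-binding microarrays carrying double-stranded probes with 34-nt variable regions, incubated 1 h with ligand-free nuclear receptor dimers. Partner-specific antibodies detected binding, and scanned fluorescence was regression-normalized.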
For B1, the binding signal is 6.55 PBM z-score against 500 random probes.

A further data set has as its target VDR:RXRa (Homo sapiens, UniProt P11473;P19793 full;full). Described as above. The note with it: tags: His kept;His cleaved; copies: 1;1; label: surface-attached array probe. Put shortly:
as §1
Consider B2, for which the binding signal is 0.19 PBM z-score against 500 random probes.
On the same count and under the same terms, the result for B3 reads -0.14 PBM z-score against 500 random probes; that for B4, 0.2 PBM z-score against 500 random probes.
As to B5, the binding signal was -0.38 PBM z-score against 500 random probes.
On to B6, for which the binding signal was -0.61 PBM z-score against 500 random probes.
Still for that read-out and setting: the result for B7 reads -0.08 PBM z-score against 500 random probes; that for B8, 0.15 PBM z-score against 500 random probes.
Still for that read-out and setting: the result for B1 reads 8.2 PBM z-score against 500 random probes.
On to B9, for which the binding signal is 0.28 PBM z-score against 500 random probes.
The same measure, in the same setting: the result for B10 reads 0.23 PBM z-score against 500 random probes; that for B11, -1.25 PBM z-score against 500 random probes.
Turning to B12, the binding signal is 0.44 PBM z-score against 500 random probes.
For the molecule B13, the binding signal is 0.33 PBM z-score against 500 random probes.
The same measure, in the same setting: to B14 belongs -0.54 PBM z-score against 500 random probes.
The same measure, in the same setting: the result for B15 reads -0.41 PBM z-score against 500 random probes; that for B16, 0.25 PBM z-score against 500 random probes.
Consider B17, for which the binding signal was 0.37 PBM z-score against 500 random probes.
Turning to B18, the binding signal is -0.46 PBM z-score against 500 random probes.
As to B19, the binding signal is -0.83 PBM z-score against 500 random probes.
For the molecule B20, the binding signal is -0.19 PBM z-score against 500 random probes.
Still for that read-out and setting: the result for B21 reads 0.3 PBM z-score against 500 random probes.
As for B22, the binding signal was -0.62 PBM z-score against 500 random probes.
On the same count and under the same terms, the result for B23 reads 0.02 PBM z-score against 500 random probes; that for B24, 0.17 PBM z-score against 500 random probes; that for B25, 0.16 PBM z-score against 500 random probes.
As to B26, the binding signal was 0.37 PBM z-score against 500 random probes.
The same measure, in the same setting: to B27 belongs 0.42 PBM z-score against 500 random probes; to B28, 0.41 PBM z-score against 500 random probes; to B29, 0.25 PBM z-score against 500 random probes.
With B30, the binding signal was 0.21 PBM z-score against 500 random probes.
